{"source": "paper PMC4219604", "about": "“C-terminal in Sp1-like artificial zinc-finger proteins plays crucial roles in determining their DNA binding affinity”", "binders": {"B1": {"name": "Probe-1 (p16 promoter) (dsDNA)", "DNA 1": "AAGGTTGTATCGCGGAGGAAGGAAACGGGGCGGGGGCGGATTTCT", "DNA 2": "AGAAATCCGCCCCCGCCCCGTTTCCTTCCTCCGCGATACAACCTT"}}, "biological_target": "7ZFP Active-A (artificial (Sp1-derived zinc fingers))", "sequence (chain, as listed by the source)": "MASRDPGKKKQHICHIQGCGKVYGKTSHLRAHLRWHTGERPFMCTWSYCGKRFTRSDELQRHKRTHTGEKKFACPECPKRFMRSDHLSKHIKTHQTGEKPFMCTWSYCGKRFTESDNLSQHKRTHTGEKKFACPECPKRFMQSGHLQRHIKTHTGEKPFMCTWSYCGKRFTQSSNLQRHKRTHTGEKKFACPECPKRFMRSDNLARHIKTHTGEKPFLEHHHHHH", "experiment": "EMSA; EMSA: 25 mM HEPES, 100 mM KCl, 1 mM EDTA, 10 mM MgCl2, 0.1% NP40, 1% glycerol, 1 mM DTT; 30 min on ice; pH not stated", "details": "protein: recombinant; tags: C-terminal 6xHis; label: biotin; blunt"}
{"binder": "B1", "values": [{"measurement": "binding result", "result": "binds"}]}
